B1: F1*; the commonest letter at each place (parent)
chain: GAGACCGCAACTGAAAAGTTGTTATCACTTGTCGTAAGACACTTTGGATGGGTTGAAGTTCTGCACGTAGAAGCAAAAGGC

Variants of: B1
Assay: fraction ligated after 30 min (ligated reads / total reads); higher = more ligase activity
Conditions: with F1*sub RNA substrate (template-directed ligation), 42 °C
Outline: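 Ligase ribozyme variants were made from oligo-pool templates by PCR amplification, T7 transcription and gel purification. After gel separation, ligated and unligated bands were reverse transcribed with barcoded primers and sequenced on a MiSeq, with core bases filtered at quality ≥20. The fraction ligated for each variant was the number of ligated reads divided by total reads.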

G46T G47A was tested. Which fraction ligated did it give?
Its fraction ligated is 0.769.

G46T G47C was tested. Which fraction ligated did it give?
Its fraction ligated is 0.0107.

For G46T G47T, which fraction ligated is on record?
Its fraction ligated is 0.0382.

For G46T G50A, which fraction ligated is on record?
Its fraction ligated is 0.0502.

How did the fraction ligated turn out when G46T G50C was run?
Its fraction ligated is 0.0286.

G46T G50T was tested. Which fraction ligated did it give?
The fraction ligated was 0.148.

With G46T G55A as the variant, how does the fraction ligated read?
The fraction ligated was 0.726.

Which fraction ligated does the source give for G46T G55C here?
Its fraction ligated is 0.111.

G46T G55T was tested. Which fraction ligated did it give?
Its fraction ligated is 0.482.

For G46T T49A, which fraction ligated is on record?
Its fraction ligated is 0.192.

For G46T T49C, which fraction ligated is on record?
Its fraction ligated is 0.148.

With G46T T49G as the variant, how does the fraction ligated read?
Its fraction ligated is 0.277.

How did the fraction ligated turn out when G47A was run?
The fraction ligated was 0.788.

For G47A A48C, which fraction ligated is on record?
Its fraction ligated is 0.723.

For G47A A48G, which fraction ligated is on record?
Its fraction ligated is 0.61.

With G47A A48T as the variant, how does the fraction ligated read?
The fraction ligated was 0.803.

How did the fraction ligated turn out when G47A A56C was run?
Its fraction ligated is 0.125.

How did the fraction ligated turn out when G47A A56G was run?
The fraction ligated was 0.098.

With G47A A56T as the variant, how does the fraction ligated read?
Its fraction ligated is 0.181.

For G47A A57C, which fraction ligated is on record?
Its fraction ligated is 0.703.

For G47A A57G, which fraction ligated is on record?
The fraction ligated was 0.774.

Which fraction ligated does the source give for G47A A57T here?
The fraction ligated was 0.77.

Which fraction ligated does the source give for G47A G50A here?
Its fraction ligated is 0.381.

Which fraction ligated does the source give for G47A G50C here?
Its fraction ligated is 0.386.

G47A G50T was tested. Which fraction ligated did it give?
Its fraction ligated is 0.657.

Which fraction ligated does the source give for G47A G55A here?
Its fraction ligated is 0.775.

With G47A G55C as the variant, how does the fraction ligated read?
The fraction ligated was 0.422.

How did the fraction ligated turn out when G47A G55T was run?
The fraction ligated was 0.221.

With G47A T49A as the variant, how does the fraction ligated read?
The fraction ligated was 0.806.

Which fraction ligated does the source give for G47A T49C here?
The fraction ligated was 0.773.

G47A T49G was tested. Which fraction ligated did it give?
The fraction ligated was 0.798.

For G47C, which fraction ligated is on record?
Its fraction ligated is 0.236.

G47C A48C was tested. Which fraction ligated did it give?
Its fraction ligated is 0.168.

How did the fraction ligated turn out when G47C A48G was run?
The fraction ligated was 0.122.

How did the fraction ligated turn out when G47C A48T was run?
Its fraction ligated is 0.257.

How did the fraction ligated turn out when G47C A56C was run?
The fraction ligated was 0.0635.

For G47C A56G, which fraction ligated is on record?
The fraction ligated was 0.0569.

How did the fraction ligated turn out when G47C A56T was run?
The fraction ligated was 0.0769.

How did the fraction ligated turn out when G47C A57C was run?
Its fraction ligated is 0.0685.

With G47C A57G as the variant, how does the fraction ligated read?
The fraction ligated was 0.0599.

With G47C A57T as the variant, how does the fraction ligated read?
Its fraction ligated is 0.0788.

With G47C G50A as the variant, how does the fraction ligated read?
Its fraction ligated is 0.059.

Which fraction ligated does the source give for G47C G50C here?
The fraction ligated was 0.0335.

With G47C G50T as the variant, how does the fraction ligated read?
The fraction ligated was 0.202.

For G47C G55A, which fraction ligated is on record?
Its fraction ligated is 0.11.

For G47C G55C, which fraction ligated is on record?
The fraction ligated was 0.0788.

For G47C G55T, which fraction ligated is on record?
Its fraction ligated is 0.0996.

With G47C T49A as the variant, how does the fraction ligated read?
The fraction ligated was 0.0759.

With G47C T49C as the variant, how does the fraction ligated read?
The fraction ligated was 0.0543.

For G47C T49G, which fraction ligated is on record?
The fraction ligated was 0.0669.

How did the fraction ligated turn out when G47T was run?
The fraction ligated was 0.37.

Which fraction ligated does the source give for G47T A48C here?
The fraction ligated was 0.0847.

G47T A48G was tested. Which fraction ligated did it give?
Its fraction ligated is 0.183.

G47T A48T was tested. Which fraction ligated did it give?
Its fraction ligated is 0.283.

For G47T A56C, which fraction ligated is on record?
The fraction ligated was 0.0301.

Which fraction ligated does the source give for G47T A56G here?
The fraction ligated was 0.0352.

With G47T A56T as the variant, how does the fraction ligated read?
Its fraction ligated is 0.0333.

How did the fraction ligated turn out when G47T A57C was run?
The fraction ligated was 0.0653.

For G47T A57G, which fraction ligated is on record?
The fraction ligated was 0.101.

For G47T A57T, which fraction ligated is on record?
The fraction ligated was 0.0782.

G47T G50A was tested. Which fraction ligated did it give?
Its fraction ligated is 0.0507.

For G47T G50C, which fraction ligated is on record?
The fraction ligated was 0.048.

Which fraction ligated does the source give for G47T G50T here?
The fraction ligated was 0.108.

For G47T G55A, which fraction ligated is on record?
Its fraction ligated is 0.0777.

How did the fraction ligated turn out when G47T G55C was run?
Its fraction ligated is 0.0359.

Which fraction ligated does the source give for G47T G55T here?
The fraction ligated was 0.0451.

For G47T T49A, which fraction ligated is on record?
Its fraction ligated is 0.0948.

How did the fraction ligated turn out when G47T T49C was run?
The fraction ligated was 0.0788.

G47T T49G was tested. Which fraction ligated did it give?
Its fraction ligated is 0.261.

How did the fraction ligated turn out when A48C was run?
Its fraction ligated is 0.752.

How did the fraction ligated turn out when A48C A56C was run?
The fraction ligated was 0.185.

Which fraction ligated does the source give for A48C A56G here?
The fraction ligated was 0.283.

A48C A56T was tested. Which fraction ligated did it give?
The fraction ligated was 0.289.

With A48C A57C as the variant, how does the fraction ligated read?
The fraction ligated was 0.714.

With A48C A57G as the variant, how does the fraction ligated read?
Its fraction ligated is 0.762.

With A48C A57T as the variant, how does the fraction ligated read?
Its fraction ligated is 0.719.

For A48C G50A, which fraction ligated is on record?
Its fraction ligated is 0.148.

A48C G50C was tested. Which fraction ligated did it give?
The fraction ligated was 0.17.

How did the fraction ligated turn out when A48C G50T was run?
Its fraction ligated is 0.309.

For A48C G55A, which fraction ligated is on record?
Its fraction ligated is 0.743.

Which fraction ligated does the source give for A48C G55C here?
The fraction ligated was 0.16.

Which fraction ligated does the source give for A48C G55T here?
Its fraction ligated is 0.5.

For A48C T49A, which fraction ligated is on record?
Its fraction ligated is 0.555.

How did the fraction ligated turn out when A48C T49C was run?
The fraction ligated was 0.335.

— the supplement of paper PMC6755084
